± gives the standard deviation of the averaged measurements.
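Note: ATP exposure 15 min at 22 °C before imaging.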

This data set relates to ATP. Kind of data set: switch fluorescence ratio, 500 uM ATP over buffer (Cy3 cluster intensity, sum of 5 cycles each) (fold (ratio)); higher = stronger signal-on switching upon ATP binding; sequences stand for … in TCGTCGGCAGCGTCAGATGTGTATAAGAGACAGTTTTTTTTTTTTTTTTTTTTTTTTT…TC. The note with it: aptamer strand: ATP DNA aptamer (quencher-CACCTGGGGGAGTATTGCGGAGGAAGG + anchor), 100 nM annealed; ATP concentration: 500 uM. An outline of the steps:
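Switching-strand clusters labelled with Cy3 on a modified Illumina MiSeq flow-cell were annealed to 100 nM quencher-labelled ATP aptamer, imaged in selection buffer, and re-imaged after 15 min with 500 uM ATP at 22 °C. This was done over five cycles with NaOH stripping and re-annealing in between. The fluorescence ratio is summed target-cycle over summed buffer-cycle Cy3 intensity per cluster, averaged per switch-domain sequence, excluding clusters outside 100-1000 RFU.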
For the sequence GCTATAAGGG, the switch fluorescence ratio turned out to be 1 ± 0.036.

On to GATTGGGTTT, for which the switch fluorescence ratio was determined as 0.999 ± 0.019.

On to TTTAGTCACT, for which the switch fluorescence ratio was determined as 1.03 ± 0.022.

Take AAGTCCCCGG: the switch fluorescence ratio turned out to be 1.18 ± 0.015.

Take GGAATTACTT: the switch fluorescence ratio turned out to be 0.987 ± 0.031.

For ATGGGTCACG, the switch fluorescence ratio was 0.987 ± 0.012.

Turning to CAGTTGGTC, the switch fluorescence ratio amounted to 0.995 ± 0.037.

TGGTGTCAAT: the switch fluorescence ratio was determined as 1 ± 0.017.

For GGTCATTATT, the switch fluorescence ratio is 0.968 ± 0.057.

In the case of TTAGCTATTA, the switch fluorescence ratio is 0.9858 ± 0.0043.

For the sequence GGTTGCACGC, the switch fluorescence ratio came out at 1.01 ± 0.0046.

For the sequence TTTTTAGCCG, the switch fluorescence ratio worked out at 1.04 ± 0.075.

In the case of AGTGTGAGCT, the switch fluorescence ratio was found to be 1 ± 0.037.

For GGTTTGGATA, the switch fluorescence ratio came to 0.985 ± 0.028.

As to GGTTTCCGCC, the switch fluorescence ratio came to 1.169 ± 0.0023.

With GTTATAGAGG, the switch fluorescence ratio was 1.03 ± 0.042.

Regarding AGTTTGTGGC, the switch fluorescence ratio stood at 0.965 ± 0.012.

As for ACTATTGGGT, the switch fluorescence ratio came to 0.988 ± 0.015.

On to CGTGCTGGCA, for which the switch fluorescence ratio amounted to 1.019 ± 0.0064.

Take GGTGGGAAGA: the switch fluorescence ratio came to 1.02 ± 0.017.

Consider TTTGTGGGAT, for which the switch fluorescence ratio was determined as 0.998 ± 0.043.

As to GGGGCATAGT, the switch fluorescence ratio was 0.991 ± 0.02.

CTAGGTCGGC: the switch fluorescence ratio came out at 0.994 ± 0.042.

On to GTGGTAGGTT, for which the switch fluorescence ratio was found to be 0.981 ± 0.027.

GAAGTGCGGT: the switch fluorescence ratio was 0.98474 ± 0.00042.

In the case of ATCAGATGAA, the switch fluorescence ratio came out at 0.999 ± 0.023.

Consider AAGTAGTTCG, for which the switch fluorescence ratio turned out to be 0.9823 ± 0.0037.

Regarding GGTGTATTGG, the switch fluorescence ratio is 0.991 ± 0.029.

With AAATCGGTGG, the switch fluorescence ratio was 1.01 ± 0.046.

TCAGGTTTGT: the switch fluorescence ratio worked out at 1.28 ± 0.34.

GGAGGGAGGA: the switch fluorescence ratio was 1.25 ± 0.3.

As for TTAAGGGTAA, the switch fluorescence ratio turned out to be 0.967 ± 0.047.

Take GGTTCGTCTG: the switch fluorescence ratio stood at 0.981 ± 0.021.

Take GTGATGGTT: the switch fluorescence ratio came to 0.984 ± 0.03.

Consider ATATTTTTAT, for which the switch fluorescence ratio was 0.987 ± 0.0082.

As for GTAGGGGCGG, the switch fluorescence ratio was determined as 1.0124 ± 0.00012.

For TATATTTAGC, the switch fluorescence ratio stood at 1 ± 0.033.

Take CGGTGGCTGG: the switch fluorescence ratio was 0.972 ± 0.036.

On to TTGACGTATA, for which the switch fluorescence ratio amounted to 1.96 ± 1.2.

As for GAGATGTTT, the switch fluorescence ratio is 0.969 ± 0.04.

Regarding CTCTAAGGCT, the switch fluorescence ratio turned out to be 1.007 ± 0.009.

For the sequence GTTTTTGTCG, the switch fluorescence ratio is 1.07 ± 0.056.

Turning to TCGTAAATTT, the switch fluorescence ratio was 0.973 ± 0.055.

As for TTGGGGCGGT, the switch fluorescence ratio was found to be 1.05 ± 0.15.

With AAAGTTTGG, the switch fluorescence ratio turned out to be 0.977 ± 0.017.

As for TTTAAAATAT, the switch fluorescence ratio amounted to 0.998 ± 0.046.

As to TTTTATATAA, the switch fluorescence ratio is 1.02 ± 0.039.

On to AGCCTTTACA, for which the switch fluorescence ratio worked out at 0.994 ± 0.011.

Turning to TATGTCCGCT, the switch fluorescence ratio is 1.05 ± 0.058.

Turning to GTTTTTCTTA, the switch fluorescence ratio turned out to be 0.978 ± 0.037.

For TTTAGACCAG, the switch fluorescence ratio worked out at 1.01 ± 0.059.

As to TTAAAGGTGG, the switch fluorescence ratio was determined as 0.984 ± 0.042.

GAGTATAGAT: the switch fluorescence ratio was determined as 1.001 ± 0.0034.

In the case of TACACCTCTA, the switch fluorescence ratio came out at 1.07 ± 0.028.

On to AGTACTGCGA, for which the switch fluorescence ratio worked out at 1.05 ± 0.035.

GGGGGCGGCG: the switch fluorescence ratio stood at 1 ± 0.051.

Regarding GGGGTTTGCC, the switch fluorescence ratio came to 0.9678 ± 0.0086.

Regarding CGGCTTTTGT, the switch fluorescence ratio turned out to be 1 ± 0.029.

For ACCTTTTCTT, the switch fluorescence ratio worked out at 1 ± 0.011.

With CTTTGAAGAG, the switch fluorescence ratio was 1.017 ± 0.0058.

As to TACAGTGAAA, the switch fluorescence ratio was 1.05 ± 0.057.

For GCCTAGCATA, the switch fluorescence ratio turned out to be 1.02 ± 0.018.

In the case of GTTAAAGATA, the switch fluorescence ratio is 0.9918 ± 0.00016.

In the case of TTCCTTGTTA, the switch fluorescence ratio worked out at 0.9973 ± 0.0052.

For the sequence TAAAAATATT, the switch fluorescence ratio stood at 0.961 ± 0.03.

As for GGGGTTTGTG, the switch fluorescence ratio was 0.997 ± 0.037.

On to GGGGCGGGTT, for which the switch fluorescence ratio is 1.02 ± 0.04.

Regarding GGTTTCGCCA, the switch fluorescence ratio was 0.9807 ± 0.0096.

Take TTACGGTGGA: the switch fluorescence ratio is 0.9963 ± 0.0033.

As to CGGTTGTAAA, the switch fluorescence ratio stood at 1.02 ± 0.013.

For the sequence ACGCAGGGGG, the switch fluorescence ratio is 0.989 ± 0.034.

With AAACCCGGGA, the switch fluorescence ratio is 1.04 ± 0.058.

In the case of GAGGGGGATT, the switch fluorescence ratio turned out to be 0.991 ± 0.028.

Turning to AGGAATGGTC, the switch fluorescence ratio worked out at 1.02 ± 0.051.

In the case of CTCTTGGAGA, the switch fluorescence ratio is 1.01 ± 0.026.

Consider TAACTAAAGG, for which the switch fluorescence ratio came to 0.9971 ± 0.0099.

Turning to TGCTTAAAGT, the switch fluorescence ratio came to 0.9807 ± 0.0054.

With CGTTCGCCGG, the switch fluorescence ratio stood at 0.99801 ± 8.6e-05.

Turning to AGTTGGGCAT, the switch fluorescence ratio is 0.995 ± 0.017.

Consider GGGATGGGCA, for which the switch fluorescence ratio was 1.01 ± 0.055.

As for GATCGTTTGT, the switch fluorescence ratio is 1.01 ± 0.021.

Turning to GAGGGAGGCT, the switch fluorescence ratio worked out at 1.04 ± 0.015.

Take GATGTCAGGC: the switch fluorescence ratio amounted to 0.996 ± 0.01.

For AGTGGGAATG, the switch fluorescence ratio was 0.9595 ± 0.0078.

For TCGTTGCTAG, the switch fluorescence ratio was 0.982 ± 0.059.

Take GTTTAATATT: the switch fluorescence ratio amounted to 0.99 ± 0.026.

Regarding CGGGGCGGTT, the switch fluorescence ratio is 1 ± 0.032.

As for CCCCTGGATA, the switch fluorescence ratio amounted to 1.03 ± 0.043.

Consider TTAGTGAGGT, for which the switch fluorescence ratio stood at 1 ± 0.027.

As to CGGGCTCTGG, the switch fluorescence ratio turned out to be 1.02 ± 0.0016.

As to ACGCTGGCGA, the switch fluorescence ratio amounted to 1.03 ± 0.021.

Consider ATCTAAAAGG, for which the switch fluorescence ratio turned out to be 1.01 ± 0.059.

AGGATGTGCT: the switch fluorescence ratio was 0.9655 ± 0.006.

GGGGCGAGTC: the switch fluorescence ratio came to 1.01 ± 0.1.

For the sequence ACCCCTGGGC, the switch fluorescence ratio was 1.16 ± 0.041.

Take TACAAGCCTA: the switch fluorescence ratio is 1.011 ± 0.0014.

For CCGTGCTTTT, the switch fluorescence ratio stood at 1.08 ± 0.047.

Take AAGTTATGTT: the switch fluorescence ratio worked out at 1.02 ± 0.028.

Take TAATTGGGCT: the switch fluorescence ratio is 0.975 ± 0.016.

Regarding CCATTTTTAC, the switch fluorescence ratio stood at 1.1 ± 0.13.

TGTAGGGGGC: the switch fluorescence ratio stood at 1.27 ± 0.39.

Take TTGAGGACGT: the switch fluorescence ratio came to 0.975 ± 0.045.

For CGAGTGAAAT, the switch fluorescence ratio amounted to 1 ± 0.018.

Consider CGAGGGATCA, for which the switch fluorescence ratio came to 0.9947 ± 0.0011.

GTGAAAACCG: the switch fluorescence ratio turned out to be 1.03 ± 0.062.

For the sequence ACCCGTACTT, the switch fluorescence ratio was determined as 1.15 ± 0.033.

AAAGATGTCG: the switch fluorescence ratio came to 1.07 ± 0.044.

With GCTCCTGACT, the switch fluorescence ratio was found to be 1.15 ± 0.026.

Consider TGACTATGCT, for which the switch fluorescence ratio was determined as 0.98 ± 0.02.

Regarding TTTAATCAAA, the switch fluorescence ratio was determined as 0.988 ± 0.014.

For TAGTGATTGC, the switch fluorescence ratio was found to be 0.988 ± 0.025.

Consider TAATTTGGAG, for which the switch fluorescence ratio came to 1 ± 0.039.

Regarding ATTTGTGGTT, the switch fluorescence ratio worked out at 0.9752 ± 0.0085.

For the sequence GGGTGAAGGG, the switch fluorescence ratio is 0.974 ± 0.021.

In the case of GCATAATTTA, the switch fluorescence ratio stood at 0.9898 ± 0.0096.

As for AAATGATCCG, the switch fluorescence ratio is 1.08 ± 0.063.

With TCGCTGCTTG, the switch fluorescence ratio was 1.065 ± 0.0074.

As to GGAGAAGCGT, the switch fluorescence ratio came to 1.04 ± 0.031.

As for CAGTTTCCTC, the switch fluorescence ratio amounted to 1.08 ± 0.015.

On to GTTGATCTGG, for which the switch fluorescence ratio is 1.01 ± 0.011.

Values taken from the supplement of paper PMC10126150.
